In the nanobody polyreactivity screen of Harvey et al. (2022):

Assay: yeast display, Sf9 membrane polyspecificity reagent, FACS + sequencing; frameworks hold sequencing errors
In short: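 Nanobodies from a synthetic yeast display library (Saccharomyces cerevisiae BJ5465), induced 36–48 hours with galactose, were stained 1 hour at 4 °C with 10% biotinylated, detergent-solubilized Sf9 membrane reagent, enriched on streptavidin microbeads, then FACS-sorted. Anti-HA (expression) and streptavidin (reagent binding) fluorescence set low and high (top ~1%) gates. Polyreactivity labels come from the gate of origin. Genes were colony-PCR amplified, MiSeq 2 × 250 sequenced and filtered by CDR length.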
With “QVQLVESGGRLVQAGGSLRLRCAASGRIIAYYAMGWYRQAPGKERELVAAISRSGGSTYYADSVKGRFTISRDTAQNYVYLQMNSLKPEDTAVYYCAASLIVPYATMNYWGQGTQVTVSS” the “polyreactivity (PSR sort gate)” value was “high polyreactivity”.
For “QVQLVESGGRLVQAGGSLRLSCAAAGSTIPKYAMGWYRQPPGKERELVAAITWRGGSTYYADSVKGRFTISRDNAKNTVYLQMNSLKPEDTAVDYCAAEPYYPSRMDYWGQGTQVTVSS”, the “polyreactivity (PSR sort gate)” value was “low polyreactivity”.
In the case of “QVQLVESGGRLVQAGGSLRLSCAASGFIFPRYTRGWYRQAPGKESELVAGITLRGGSTYYADSVKGRFTISRDNAKNTVYLQMNSLKPEDTAVYYCARGISRGRSFGIGYDYWGQGTQVTVSS”, the “polyreactivity (PSR sort gate)” value is reported as “low polyreactivity”.
In the case of “QVQLVESGGRLVQAGGSLRLSCAASGFIFSRYAMGWSRQAPGKERELVAAISRGGSTNYADSVMGRFTISRDNAKNTVYLQMNSLKPEDTAVYYCAVRQIVRYYYWGQGTQVTVSS”, the “polyreactivity (PSR sort gate)” value is reported as “high polyreactivity”.
In the case of “QVQLVESGGRLVQAGGSLRLSCAASGFILLAYAMGWYRQAHGKERELVAAITSGGSTHYADSVKGRFTISRDNAKNTVYLQMNSLKPEDTAVYYCAKDTVFRYSGNTYGYWGQGTQVTVSS”, the “polyreactivity (PSR sort gate)” value is reported as “low polyreactivity”.
For “QVQLVESGGRLVQAGGSLRLSCAASGFILTSYAMGWYRQAPGKERELVAAISSRGGRTYYADSVKGRFTISRDNAKNTVYLQMNSLKPEDTAVYYCNAVVYVVGDFDYWGQGTQVTGSS”, the “polyreactivity (PSR sort gate)” value was “high polyreactivity”.
In the case of “QVQLVESGGRLVQAGGSLRLSCAASGGTFGQYAMGWYRQAPGKERELVAAISRGGDSTYSADSVKGRFTISRDNAKNTVYLQMNSLKPADTAVYYCAAPGISYYSRYYYRTYDYWGQGTQVTVSS”, the “polyreactivity (PSR sort gate)” value is reported as “high polyreactivity”.
For “QVQLVESGGRLVQAGGSLRLSCAASGIIFPYYAMGWYRPAPGTVRELVAGISSSGGITYADSVKGRYTISRDNAKNTVYLPMNSLKPEDTAVYYCNAEYQWLEYDYWGQGTQVTVSS”, the “polyreactivity (PSR sort gate)” value was “low polyreactivity”.
With “QVQLVESGGRLVQAGGSLRLSCAASGITLNRNAMGWYRQEPGKESELVARISRRGGTTYYADSVKGRFTISRYYAKNTVYLQMNSLKPEDTAVYYCAASYSDRKLTDYWGQRTQVTVSS” the “polyreactivity (PSR sort gate)” value was “high polyreactivity”.
In the case of “QVQLVESGGRLVQAGGSLRLSCAASGLIFADYTMGWYRQAPGKERELVAVITDGDSTYYADSVKGRFTISRDNAKNTVYLQMNSLKPEDTAVYYCAARSAILKSGYLMDYWGQGTQVTVSS”, the “polyreactivity (PSR sort gate)” value is reported as “low polyreactivity”.
In the case of “QVQLVESGGRLVQAGGSLRLSCAASGPIFAPYDMGWYRQAPGKERELVAAISRSGGSTYYADSVKGRFTISRDNAKNTVYLQMNSLKPEETPVYSCAAGLFVGFDYWGQGTQVTVTS”, the “polyreactivity (PSR sort gate)” value is reported as “high polyreactivity”.
In the case of “QVQLVESGGRLVQAGGSLRLSCAASGRIFAAYAMGWYRQAPGKEREFVAGITRTGGSTYYADSVKGRFTISRDHAKNTVYFQMNSLKPEDTAVYYCAASLVYYGHAYNYWGQGTQVTVSS”, the “polyreactivity (PSR sort gate)” value is reported as “high polyreactivity”.
For “QVQLVESGGRLVQAGGSLRLSCAASGRIFVRYAMGWYRQAPGKERELVAAISTRGGSTYYADSVKGRFTISRDNAKNTVYLQMNSLNPEDTAVYYCAAGPRPRPTDYWGQGTQVTVSS”, the “polyreactivity (PSR sort gate)” value was “high polyreactivity”.
For “QVQLVESGGRLVQAGGSLRLSCAASGRIFWGYALGRYRQAHGKVSELVAAITRSGGRTYYADSVKGRFTISRDNAKNTVYLQMTSLKREDTAVYYCNAVNSLQPYKFDYWVQGTQVTVSS”, the “polyreactivity (PSR sort gate)” value was “high polyreactivity”.
For “QVQLVESGGRLVQAGGSLRLSCAASGRIILRNAMGWYRQAPGKERELVAAISSSGGRKYYADSVKGRFTISRDNAKNTVYLQMNSLKPEDTAVYYCNARWHGSFDYWGQGTQVTVSS”, the “polyreactivity (PSR sort gate)” value was “low polyreactivity”.
With “QVQLVESGGRLVQAGGSLRLSCAASGRTFYHNAMGWYRQAPGKERELVAVITWSGGSTYYADSVKGRFTISRDNAKNTVYLQMNSLKPEDTAVYYCATRRYGYERILYNYWGQGTQVTVSS” the “polyreactivity (PSR sort gate)” value was “high polyreactivity”.
In the case of “QVQLVESGGRLVQAGGSLRLSCAASGRTIYGNVMGWYRQAPGKERELVAVISWSSGSTSYADSVKGRFTISRDNAKNTVYLQMKSLKPEDTAVFYCAADSVTRPAGDYWGHGTQVTVSS”, the “polyreactivity (PSR sort gate)” value is reported as “low polyreactivity”.
